Data on 41 sequences can be found in the nanobody polyreactivity screen of Harvey et al. (2022).

This data set can be described thus: yeast display, Sf9 membrane polyspecificity reagent, FACS + sequencing; frameworks hold sequencing errors. The gist of the method:
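Synthetic nanobody libraries on Saccharomyces cerevisiae BJ5465 were galactose-induced for 36–48 hours, stained 1 hour at 4 °C with 10% biotinylated, detergent-solubilized Sf9 membrane reagent and enriched on streptavidin microbeads. FACS then separated cells into low and high (top ~1%) gates by anti-HA (expression) and streptavidin (reagent binding) fluorescence. Genes were colony-PCR amplified, MiSeq 2 × 250 sequenced and CDR-length filtered. A clone's polyreactivity label is that of its gate of origin.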
“QVQLVESGGGLLQAGGSISLSCAASGFTISPYAMGWYRQAPAKERELVAVISKSSTRTYYADSVKGRFTITRDNAKNTVYLQMNSLKPEDTAVYYCYAGCNFVSGYYYWGQGTQVTVSS”: the “polyreactivity (PSR sort gate)” value is “high polyreactivity”.

Consider “QVQLVESGGGLLQAGGSLPLSCAASGRIFIKYAMGWYRPAPGKERELVAAISQSGGSTYYADSVKGRFTISRDNAKNTVYLQMNSLKPEDTAVYYCAAGNRRLGGRLYRYYYWGQGPQVTVSS”, for which the “polyreactivity (PSR sort gate)” value is recorded as “high polyreactivity”.

As for “QVQLVESGGGLLQAGGSLRISCAASGSILFLYDMGWYRQAPGKERELVAAIRWSGGGTYYADSVKGRFTISRDNAKNTVYLQMNSLKPEDTAVYYCAAAARYPFDVTYYYWGQGTQVTVSS”, the “polyreactivity (PSR sort gate)” value is on record as “high polyreactivity”.

For “QVQLVESGGGLLQAGGSLRLRSPASGSIFEEYAMGWYRQAPGKERELVAAITRRGGNTYYADSVKGRFTISRDNAKNTVYLQMTSLKPEDTAVYYCAAPLGNYSWQYEYWGPGTQVTVSS”, the “polyreactivity (PSR sort gate)” value is recorded as “low polyreactivity”.

On to “QVQLVESGGGLLQAGGSLRLSCAASGFIFDGYAMGWYRQAPGKERELVAAISSVGSTYYADSVKGRFTISRDNAKKTVYLQMNSLKPEDTAVYYCAAVRFYTYNYWGQGTQVTVSS”, for which the “polyreactivity (PSR sort gate)” value is “low polyreactivity”.

Take “QVQLVESGGGLLQAGGSLRLSCAASGFIFHHYGMGWYRQAPGKERELVAGDTHYADSVKGRFTISRDNAKNTVYLQMNSLKPEDTGVYYCNAYWKDDFEDGPGRRGMDYWGQGTQVTVSS”: the “polyreactivity (PSR sort gate)” value is “low polyreactivity”.

As to “QVQLVESGGGLLQAGGSLRLSCAASGFIFRRYTLGWYRQAPGKERELVAAITSSGARTYYADSVKGRFTISRDNAKNTVYLQMTSLKPEDTAVYYCYTSYRKKKRYYYWGQGTQVTVSS”, the “polyreactivity (PSR sort gate)” value is “high polyreactivity”.

For “QVQLVESGGGLLQAGGSLRLSCAASGFIFVDNAMGWYRQAPGKERELVAAITSGASTYYADSVKGRFTISRDNAKNTVYLQMNSLKPEDTAVYYCAADYLYYYTWYNYWGQGTQVTVSS”, the “polyreactivity (PSR sort gate)” value is on record as “low polyreactivity”.

“QVQLVESGGGLLQAGGSLRLSCAASGFILNSYAMGWYRQAPGKERELVAAITRSGGNTFYADSVKGRFKISRDNAKNTVYLQMNSLQPEDTAVYYCYAYFTYWSQLYYWGQGTQVTVSS”: the “polyreactivity (PSR sort gate)” value is reported as “high polyreactivity”.

For the sequence “QVQLVESGGGLLQAGGSLRLSCAASGFTFHKNAMGWYRQAPGKERELVAAISRSGGRTYYADSVKGRFTISRDNAKNTVYLQMNSLKPEDTAVYYCNATPLLWAGYDYWGQGTQVTVSS”, the “polyreactivity (PSR sort gate)” value is reported as “high polyreactivity”.

In the case of “QVQLVESGGGLLQAGGSLRLSCAASGFTFRNYAMGWYRQAPGKEREFVAAITGRGGSTYYADSVKGRFTISRDNAKNTVYLQMNSLKPEDTAVYYCNAYSGVSFYSSWYGYWGQGTQVTVSS”, the “polyreactivity (PSR sort gate)” value was “high polyreactivity”.

Turning to “QVQLVESGGGLLQAGGSLRLSCAASGFTFRPYAMGLYRQAPGKERELVAAIDYSGGSTSYADSVKGRFTISRDNAKNTVYLQLNSLKPEDTAVFSCATDYPLSWSPLYDYDYWGQGTQVTVSS”, the “polyreactivity (PSR sort gate)” value is recorded as “low polyreactivity”.

Turning to “QVQLVESGGGLLQAGGSLRLSCAASGFTFSRYAMGWYRQAPRKEMELVATISRSGGTTYYADSVKGRFTISRDNAKNTVYLLMNSLKPEDTAVYYGNTDKIWGLQYYYWGQGTQVTVSS”, the “polyreactivity (PSR sort gate)” value is “high polyreactivity”.

For “QVQLVESGGGLLQAGGSLRLSCAASGFTIYRYAMGWYRQATGKERELVAAITGGGGSTYYADSVKGRFTISRDNAKNTVYLQMNSLKPEDTAVYYCAVDVYHIGQYRWSYGYWGQGTQVTVSS”, the “polyreactivity (PSR sort gate)” value is given as “low polyreactivity”.

Turning to “QVQLVESGGGLLQAGGSLRLSCAASGGIFQGNVMGWYRQAPGKERELVASIRRGGSTNYADSVKGRFTISRDNAKNTVYLQMNSLKPEDTAVYYCAARKWVGYHVWPLREYNYWGQGTQVTVSS”, the “polyreactivity (PSR sort gate)” value is listed as “low polyreactivity”.

Consider “QVQLVESGGGLLQAGGSLRLSCAASGINFSKYAMGWYRQAPGTERELVAVISASGGGTYYADSVKGRFTISRDNAKNTVYLQMNSLKPEDTAVYFCAADSSDVYDYWGQGTQVTVSS”, for which the “polyreactivity (PSR sort gate)” value was “high polyreactivity”.

In the case of “QVQLVESGGGLLQAGGSLRLSCAASGRIFDRNAMGWYRQAPGKERELVATISSGDTTDYADSVKGRFTISRDNAKNTVYLQMNSLKPEDTAVYYITIYNYWGQGTQVTVSS”, the “polyreactivity (PSR sort gate)” value is given as “low polyreactivity”.

As to “QVQLVESGGGLLQAGGSLRLSCAASGRIFSTNAMGWYRQAPGKERELVAAITNGGNTNYADSVKGRFTISRDNAKITVYLQMNSLKQEDTAVYYCAKAVAYSWVDGYGYEYWGQGTQVTVSS”, the “polyreactivity (PSR sort gate)” value was “low polyreactivity”.

For “QVQLVESGGGLLQAGGSLRLSCAASGRIFVVYAMGWYRQAPGKERELVASITWRGGSTYYADSVKGRFTISRDNAKNTVYLQMNSLKPEDTAVYYCAAELDVYVSIGSRFHFDYWGQGTQVTVSS”, the “polyreactivity (PSR sort gate)” value is recorded as “low polyreactivity”.

For the sequence “QVQLVESGGGLLQAGGSLRLSCAASGRTFAYNAMAWYRQAPGKERELVAAITDSDGNTYYADSVKGRFTISRDNAKNTVYLLMNSLKPEDTAVYYCAADYIILDHVTRGFVYEYWGQGTQVTVSS”, the “polyreactivity (PSR sort gate)” value is given as “low polyreactivity”.

Regarding “QVQLVESGGGLLQAGGSLRLSCAASGRTFHLYAMGWYRQAPGKERELVAAIRGRSGSTYYADSVKGRFTISRDNAKNTVYLQMNSLKPEDTAVYYCAVGRYPYGSARYRFDYWGQGTQVTVSS”, the “polyreactivity (PSR sort gate)” value was “high polyreactivity”.

Take “QVQLVESGGGLLQAGGSLRLSCAASGRTSVRYAMGWYRQAPGKERELVAAISWSGGSTYYADSVKGRFTISRDHAKNTVYLQMNCLKPEDTAVYYCNAQHARGYYYWGQGTQVTVSS”: the “polyreactivity (PSR sort gate)” value is reported as “low polyreactivity”.

With “QVQLVESGGGLLQAGGSLRLSCAASGRTYVWNAMGWSRQAPGKERELVAGISWRGGSTYYADSVKGRFRISRDNAKNTVYLQKNSLKPEDTAVYYFAASARFVTYKMYYWGQGTQVTVSS”, the “polyreactivity (PSR sort gate)” value is “high polyreactivity”.

For the sequence “QVQLVESGGGLLQAGGSLRLSCAASGSIFRLNAMGWYRQAPGKERELVATINYSGDSTYYADSVKGRFTISRDNAKNTVYLQMNSLKPEDTAVYFCATDYGWYDYWGQGTQVTVSS”, the “polyreactivity (PSR sort gate)” value was “low polyreactivity”.

Regarding “QVQLVESGGGLLQAGGSLRLSCAASGSIFRYYAMGWYRQAPGKERELVATISTGGRTYYADSVKGRFTISRDNAKNTVYLQMNSLKPEVTAVYYCAAVRLTWTAKYNYWGQGTQVTVSS”, the “polyreactivity (PSR sort gate)” value was “high polyreactivity”.

On to “QVQLVESGGGLLQAGGSLRLSCAASGSIFYRYAMGWYRQAPWKERELVAAISRSGASTYYADSVKGRFTISRDNAKNTVYLQMNSLKPEDTAVYYCAAYFATSRLPVRYDYWGQGTQVTVSS”, for which the “polyreactivity (PSR sort gate)” value was “high polyreactivity”.

Regarding “QVQLVESGGGLLQAGGSLRLSCAASGSILYWNAMGWYRQAPGKERELVAAITGSGGSTSYADSVKGRFTISRDNAKNTVYLQMNSLKPEDTAVYYCAALQFPTPLLLYDSWGQGTQVTVSS”, the “polyreactivity (PSR sort gate)” value is listed as “low polyreactivity”.

Regarding “QVQLVESGGGLLQAGGSLRLSCAASGSTFKGYAMGWYRQAPGKERELVAAISWSAGSTYYADSVKGRFTISRDNAKNTVYLQMNSLKPEDTAVYYCAKASVALRYYSYSLGRDYWGQGTQVTVSS”, the “polyreactivity (PSR sort gate)” value is given as “low polyreactivity”.

“QVQLVESGGGLLQAGGSLRLSCAASGSTFQWYAMGWYRQAPGKERELVAGITRTGSTYYADSVKGRFTISRDNAKNTVYLQMNSLKPEDTAVYYCAAKWHTASGKYYYWGQGTQVTVSS”: the “polyreactivity (PSR sort gate)” value is given as “high polyreactivity”.

On to “QVQLVESGGGLLQAGGSLRLSCAASGSTYFGNAMGWDRQAPGKERELVAAITSGGSTNYADSVKGRFTISRDNAKNTVYLQMNSLKPEDTAVYYCAKPSRWGWTGFYAYDYWGQGTQVTVSS”, for which the “polyreactivity (PSR sort gate)” value was “low polyreactivity”.

Regarding “QVQLVESGGGLLQAGGSLRLSCAASGVIFSWYAMGWYRQAPGKERELVAAINWSGDSTYYADSVKGRFTISRDNAKNTVYLQMNSLKPEDTAVYYCAADPSYWGDPYDYWGQGTQVTVSS”, the “polyreactivity (PSR sort gate)” value is “high polyreactivity”.

Turning to “QVQLVESGGGLLQAGGSLRLSCAASVNIFWRYRMGWYRQAPGKERELVAAIRRSGGTTYYADSVKGRFTISRDNAKNTVYFQMNSLKPEDTAVYNCAAGLTVRKFVRFDYWGHGTQVTVSS”, the “polyreactivity (PSR sort gate)” value is on record as “low polyreactivity”.

As for “QVQLVESGGGLLQAGGSLRLSCASSGITFGDNVMGWYRQAPGKERELVAAISRIGDDTYYADSVKGRFTISRDNAKNTVFFQMNSLKPEDTAVYYCATDFTQRDYYNYGYWGQRTQVTVSS”, the “polyreactivity (PSR sort gate)” value is given as “low polyreactivity”.

Consider “QVQLVESGGGLLQAGGSLRLSCASSGSTFYTNDMGWYRPAPGKERELVAAITSAGNTNYADSVKGRFTISRDNAKNTVYLQMNSLKPEDTAVYYYYYYQYDYWGQGTQVTVSS”, for which the “polyreactivity (PSR sort gate)” value is recorded as “low polyreactivity”.

As for “QVQLVESGGGLLQAGGTLRLSCAASGITFWSYAMGWYRQAPGKERELVAAITIGGTTYYADSVKGRFTSSRDNAKNTVYLQMNSRKPEDTAVYYCAVDSTDQAPPTYDYWGQGTQVTVSS”, the “polyreactivity (PSR sort gate)” value is “low polyreactivity”.

Turning to “QVQLVESGGGLVEAAGSLRLSCAASGRILCGNTMGWYRQATGKERELFAAISWNGGGTYYADSVKGRFTISRDTAKNNVYLQMNSLTPEDTAVYYCATRYTYSTDTGYDYWGQGTQVTVSS”, the “polyreactivity (PSR sort gate)” value is “low polyreactivity”.

For “QVQLVESGGGLVEAGGSLRLICAAAGSNFSYYAMGWYRQAPGKERELVAAISWNGGRTYYADSVKGRFTISRDNAKYSVYLQMNSLKPEDTAVYYCAARSSYKFYYWGQRTQVTVSS”, the “polyreactivity (PSR sort gate)” value is listed as “high polyreactivity”.

Take “QVQLVESGGGLVEAGGSLRLSCAASGIIFYGYDMGWYREAPGKERELVAGITVSGGTYYADSVKGRFTISRDNAKNTVYLQMNSLKPEDTAVYYSARDQWPYVHGKYAYWGQGTQVTVSS”: the “polyreactivity (PSR sort gate)” value is “low polyreactivity”.

Turning to “QVQLVESGGGLVEAGGSLRLSCAASGRIFCYNAMGWYRQAPGKERELVAAIRSGGRTHYADSVKGRFTISRDNAKNTVTLQMNSLKPEDTAVYYCAARSVPYPYRRNPYDYWGQGTQVTVSS”, the “polyreactivity (PSR sort gate)” value was “high polyreactivity”.

“QVQLVESGGGLVEAGGSLRLSCAASGRIFTGYAMGWYRQAPGKERELVAAISDGGSTNYADSVKGRFTISRDNAKNTVYLQMNSLKPEDTAVYYCAADGHSSDQYDYWGPGTQVTVSS”: the “polyreactivity (PSR sort gate)” value is “low polyreactivity”.

Consider “QVQLVESGGGLVEAGGSLRLSCAASGSIFRINAMGWYRQAPGKERELVAAISTLSGRTYYADSVKGRFTISRDNAKITVYLQMNSLKPEDTAVYYCAVGQARAGLIGGYWGQGTQVTVSS”, for which the “polyreactivity (PSR sort gate)” value was “high polyreactivity”.
